Measured values from patent US20250243282A1.

Biological target: Recombinant human Gal3 (rhGal3) (TrueBinding, #QC200361) (human) (UniProt P17931)
Assay: cell-based or functional assay

% inhibition of CD62L shedding: 21.1%
Substance: MOPC21-hIgG4 (S228P) isotype control (antibody)
